Target: F HIV-clamp (respiratory syncytial virus)
Assay: capture ELISA, 101F coat and MPE8 detection; antigen yield estimate, control

Q: With MPE8 (antibody) as the substance, how does the yield by MPE8 binding ELISA read?
A: 10 mg/L

— patent publication US20250223319A1
